Measurements as given in PMC4865318 (Molecular Biology of the Cell, 2016).

T1: MBP-UNC-15 (294–376) (C. elegans, UniProt P10567 294-376)
T1 sequence (looked up): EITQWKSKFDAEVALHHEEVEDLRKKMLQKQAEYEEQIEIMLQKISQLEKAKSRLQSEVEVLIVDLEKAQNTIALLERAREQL

T2: MBP-UNC-15 (221–873) (C. elegans, UniProt P10567 221-872)
T2 sequence (looked up): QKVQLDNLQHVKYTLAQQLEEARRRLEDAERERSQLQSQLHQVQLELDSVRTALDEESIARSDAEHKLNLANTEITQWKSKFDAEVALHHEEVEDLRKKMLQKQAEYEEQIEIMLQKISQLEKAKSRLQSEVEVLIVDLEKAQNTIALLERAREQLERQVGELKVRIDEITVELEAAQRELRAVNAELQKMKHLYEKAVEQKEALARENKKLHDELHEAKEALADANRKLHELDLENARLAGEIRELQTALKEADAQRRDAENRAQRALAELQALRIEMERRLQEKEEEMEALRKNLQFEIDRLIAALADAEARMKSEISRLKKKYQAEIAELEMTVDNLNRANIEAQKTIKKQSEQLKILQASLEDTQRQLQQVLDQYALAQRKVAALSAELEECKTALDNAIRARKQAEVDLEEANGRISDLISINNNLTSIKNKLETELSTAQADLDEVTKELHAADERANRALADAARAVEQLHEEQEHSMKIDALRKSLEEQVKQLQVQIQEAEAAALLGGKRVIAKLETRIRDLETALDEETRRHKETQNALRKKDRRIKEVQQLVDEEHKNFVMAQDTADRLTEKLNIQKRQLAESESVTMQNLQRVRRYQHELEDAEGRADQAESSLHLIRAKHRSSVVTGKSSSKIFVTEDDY


Assays:
[1] = biological target: T1, MBP-UNC-15 (294–376); assay: BLI
[2] = biological target: T2, MBP-UNC-15 (221–873); assay: far-Western

Binder	Kd [1]	koff [1]	kon [1]	binding result [2]
GST-UNC-89 (58–131) (domain or fragment, C. elegans, UniProt O01761 58-131, looked up) AGSESRSYPVYIAIQDYTPDKEDVEAIPLEQGQIVEVLDKKNSVRWLVRTKARPPRSGWVPGSYFETPTEFYKQ	1100 nM	0.00015 s⁻¹	143 M⁻¹ s⁻¹	
GST-UNC-89 (1–151) (domain or fragment, C. elegans, UniProt O01761 1-151, looked up) MASRRQKQFDRKYSSYRKFTATEDVNYSTHSSRSSYRSESLTSRTDGRGRSTSSEIIAGSESRSYPVYIAIQDYTPDKEDVEAIPLEQGQIVEVLDKKNSVRWLVRTKARPPRSGWVPGSYFETPTEFYKQRRRTREIENVSLSDEQAALV				binds
GST-UNC-89 (1–500) (domain or fragment, C. elegans, UniProt O01761 1-500, looked up) MASRRQKQFDRKYSSYRKFTATEDVNYSTHSSRSSYRSESLTSRTDGRGRSTSSEIIAGSESRSYPVYIAIQDYTPDKEDVEAIPLEQGQIVEVLDKKNSVRWLVRTKARPPRSGWVPGSYFETPTEFYKQRRRTREIENVSLSDEQAALVKRDQVYHELLRSEEEFVSSLRTCVDDYIKVLDDPEVPEAVKKNREELTLNIPELYNFHANVMLKGLNYYSDDPGKVGQTFVRLEKDFESHVEFYKQYADTLKLLEEPEIKRFFEGLSAKNDAGASSFVDHVKEIADRMVQYQNYFKEFVKYSARAHGSSKSIQKALELVTTIPQRVHDLEFTNNLKQHPGDTGKLGRIIRHDAFQVWEGDEPPKLRYVFLFRNKIMFTEQDASTSPPSYTHYSSIRLDKYNIRQHTTDEDTIVLQPQEPGLPSFRIKPKDFETSEYVRKAWLRDIAEEQEKYAAERDAISMTATSEMTASSVDFDMNASDQQSEFSEWSGSRKSSLFPG				binds
